According to article PMC7375240, “Covalent Inhibitors Allosterically Block the Activation of Rho Family Proteins and Suppress Cancer Cell Invasion” (Advanced Science, 2020):

How the values were obtained:
[1] = biological target: T1, RalGPS1 (residues 24-289) (human, UniProt Q5JS13 24-289); experiment: pull-down; (His)6-tagged GTPase held on nickel beads, 2 µg GST-tagged partner added; 20 mM HEPES pH 7.4, 150 mM NaCl, 5 mM MgCl2, 40 mM imidazole, 4 °C, 1 h; GST-tagged protein detected by anti-GST western blot; samples without effect of DC-Rhoin; settings: both partners purified
T1 construct: RalGPS1, human, residues 24-289; also called respective GEF of Ral-B (pairing inferred); source: E. coli BL21 (DE3), purified (GSTTrap, Superdex 75)

Rac1 = Rac1 (human, UniProt P63000 1-192); experiment: as above; settings: both partners purified

T1 sequence (Q5JS13 24-289): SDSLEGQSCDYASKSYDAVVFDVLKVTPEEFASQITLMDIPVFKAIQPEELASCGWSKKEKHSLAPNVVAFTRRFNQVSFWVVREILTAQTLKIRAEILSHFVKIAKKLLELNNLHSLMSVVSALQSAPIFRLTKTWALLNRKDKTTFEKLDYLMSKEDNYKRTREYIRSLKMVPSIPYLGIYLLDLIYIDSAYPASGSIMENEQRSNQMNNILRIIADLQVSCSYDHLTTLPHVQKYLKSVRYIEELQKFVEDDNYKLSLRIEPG

| binding result [1] | binding result (Rac1) | Binder |
| --- | --- | --- |
| binds |  | Ral-B (natural protein, human, UniProt P11234 1-206, looked up, RalB, human, full length, in pET28a with a TEV site; source: E. coli BL21 (DE3), purified (HisTrap FF, Superdex 75)) MAANKSKGQSSLALHKVIMVGSGGVGKSALTLQFMYDEFVEDYEPTKADSYRKKVVLDGEEVQIDILDTAGQEDYAAIRDNYFRSGEGFLLVFSITEHESFTATAEFREQILRVKAEEDKIPLLVVGNKSDLEERRQVPVEEARSKAEEWGVQYVETSAKTRANVDKVFFDLMREIRTKKMSENKDKNGKKSSKNKKSFKERCCLL |
|  | binds | Tiam1 (residues 1033-1406) (domain or fragment, Tiam1, murine, residues 1033-1406; The text says only 'their respective GEFs'; that this construct was the GEF used with Rac1 is inferred from the list of constructs; also called respective GEF of Rac1 (pairing inferred); source: E. coli BL21 (DE3), purified (GSTTrap, Superdex 75)) RQLSDADKLRKVICELLETERTYVKDLNCLMERYLKPLQKETFLTQDELDVLFGNLTEMVEFQVEFLKTLEDGVRLVPDLEKLEKVDQFKKVLFSLGGSFLYYADRFKLYSAFCASHTKVPKVLVKAKTDTAFKAFLDAQNPRQQHSSTLESYLIKPIQRVLKYPLLLRELFALTDAESEEHYHLDVAIKTMNKVASHINEMQKIHEEFGAVFDQLIAEQTGEKKEVADLSMGDLLLHTSVIWLNPPASLGKWKKEPELAAFVFKTAVVLVYKDGSKQKKKLVGSHRLSIYEEWDPFRFRHMIPTEALQVRALPSADAEANAVCEIVHVKSESEGRPERVFHLCCSSPESRKDFLKSVHSILRDKHRRQLLKTE |
